In patent US20230071765A1, “COMPOSITIONS HAVING THIOREDOXIN ACTIVITY AND RELATED METHODS” (ORPRO THERAPEUTICS, INC., priority 2020, published 2023):

Legend:
[1] = tested on: primary HBE cells from healthy non-CF donors; assay: μOCT of MCT rate and CBF in non-CF primary HBE cells; format: cell-based, human
From the text: (§1) Primary human bronchial epithelial (HBE) cells were derived from lung explants from healthy failed donors and CF patients homozygous for F508del CFTR. […]
(§2) One-micron resolution spectral domain μOCT was used to obtain measurements of mucociliary transport (MCT) rate and ciliary beat frequency (CBF) in HBE monolayers and of MCT rate of sputum ex vivo. This first-in-kind, high-speed (40 frames per second, 512 lines per frame) microscopic reflectance imaging modality enables simultaneous anatomic imaging in cell cultures and intact tissues that readily distinguishes the properties of CF compared to normal epithelia (Liu L, Chu K K, Houser G H, Diephuis B J, Li Y, Wilsterman E J, Shastry S, Dierksen G, Birket S E, Mazur M, et al., 2013, Method for quantitative study of airway functional microanatomy using micro-optical coherence tomography, PLoS One 8(1):e54473; Tuggle K L, Birket S E, Cui X, Hong J, Warren J, Reid L, Chambers A, Ji D, Gamber K, Chu K K, et al., 2014, Characterization of defects in ion transport and tissue development in Cystic Fibrosis Transmembrane Conductance Regulator (CFTR)-knockout rats. […] Images were captured, and MCT rate and CBF calculated, as described in the preceding references.

[2] = tested on: primary HBE cells from CF donors homozygous for F508del; assay: μOCT of MCT rate and CBF in CF primary HBE cells; format: cell-based, human
From the text: as §1, §2

mucins of 4% HBE mucus = assay: mucin molecular weight by GPC-MALLS; format: biochemical, human; settings: all three concentrations (0.01, 0.1, 1.0 mM), 1 hr at 37° C.; untreated 180 MDa
From the text: Mucus Preparation: Aseptic mucus was harvested from over 100 individual HBE cultures from 20 different CF donors and prepared to four weight-percent (4%) solids, a concentration that typifies chronic obstructive pulmonary disease (COPD) and mild CF (Hill, D. B. et al., 2014, A biophysical basis for mucus solids concentration as a candidate biomarker for airways disease, PloS one 9, e87681; Anderson, W. H. et al., 2015, The relationship of mucus concentration (hydration) to mucus osmotic pressure and transport in chronic bronchitis., Am J Resp Crit Care Med 192: 182-90). […] Creep recovery experiments were performed in which a known stress (between 0.05 and ˜100 Pa) was applied to treated or control mucus for 10 seconds, and the rheological recovery of the fluid was recorded for an additional 50 seconds. […] From the measured parameters the viscosity and elasticity of the fluid were determined as a function of applied stress. […] Mucin molecular weight determination: Molecular weight reduction following test article treatment was determined using a combination of gel-permeation chromatography with multi-angle laser light scattering on a Wyatt Heleos MALLS system. […] Mucin MW was determined by fitting a Berry model to light scattering from 11 different angles using Wyatt Astra software. […]

B1: ORP100S: thioredoxin with monothiol active site, Cys35 and non-active Cys 62, 69 and 73 substituted with serine (SEQ ID NO:29) (protein)
chain: MVKQIESKTAFQEALDAAGDKLVVVDFSATWCGPSKMIKPFFHSLSEKYSNVIFLEVDVDDSQDVASESEVKSMPTFQFFKKGQKVGEFSGANKEKLEATINELV
modifications: synthetic peptide motif
For B1, the CBF ([1]; 3 hrs post treatment) was “no meaningful differences”, the MCT rate ([1]; 3 hrs post-treatment, ORP100S 1-3 mM, DTT 1.6 mM, PBS 0.05±0.007, mean±SE) was 2.18±0.3 mm/min and the CBF ([2]; 3 hrs post treatment) was “no meaningful differences”. For the same molecule, the MCT rate ([2]; 3 hrs post-treatment, ORP100S 1-3 mM, DTT 1.6 mM, PBS 7.30±2.9, mean±SE) was 54.73±15.3 mm/min and the “molecular weight of mucins” value (mucins of 4% HBE mucus) was “ca. 150 MDa”.
